Test results from the nanobody polyreactivity screen of Harvey et al. (2022).

Experiment: yeast display, Sf9 membrane polyspecificity reagent, FACS + sequencing; frameworks hold sequencing errors
Procedure, shortened: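 Sorting gates, low and high (top ~1%), were placed on anti-HA fluorescence to track expression and on streptavidin fluorescence to track reagent binding. A clone's polyreactivity label is taken from the gate it came out of. The reagent was 10% biotinylated, detergent-solubilized Sf9 membrane, applied for 1 hour at 4 °C to galactose-induced yeast display cells.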

Row | Sequence | polyreactivity (PSR sort gate)
1 | QVQLVESGGGLVQAGGSLSLSCGASGRIFSLYAMGWYRQAPGKERELVAAMSWGAGSTYYADSVKGRFTISRDNAKNTVYLQMNSLKREATAVYYCATGRRYYYPYASYLKYGYWGQGTQVTVSS | high polyreactivity
2 | QVQLVESGGGLVQAGGSLSLSSAASGFIFHTYAMRWYRQAPGKERELVASITWRGGRTYYADSVKGRFTISRDNAKNTVYLQLNSLNPVYTAVYYCAAVTFSYDGYDYWGQGTQVTVSS | low polyreactivity
3 | QVQLVESGGGLVQAGGSLSLSSAASGPIFAYNAMGWYRQAPGKERELVAAISYSGGSTYYADSLKGRFTISRDNAKNTVYIQMNSLKPEDTAVYYCNAVYRYLTYRYDYWGQGTQVTVSS | high polyreactivity
4 | QVQLVESGGGLVQAGGSLSVSCAASGFTFDRYAMGWYRQAPGKERELVAAISGSGDSTFYADSVKGRFTISRDNAKNTVYLQMNSLKPVDTAVYYCNAKRSFRWTYGYWGQGSQVTVSS | high polyreactivity
5 | QVQLVESGGGLVQAGGSPRLSCAASGIIFQHNAMGWYRQAPGKERELVAAISSNGGRTFYADSVKGRFTISRDNAKNTVYLQMNSLKPEDTAVYYCAADRPAYGVGYWGQGTQVTVSS | high polyreactivity
6 | QVQLVESGGGLVQAGGSPRLSCAASGSISNYYGMGWYRQAPRKERELVAAITWGGGRTNYADSVKGRFTISRDNAKNTVYLQMNSLKPEDTAVYYCAKVSVTHRYGAGGDYWGQGTQVTVSS | low polyreactivity
7 | QVQLVESGGGLVQAGGSRLLSCAASGGTFSFYAMGWYRQAPAKEREFVAAITASDGSTYYADSLTGRFTISRDNAKNTVYLQMNSLKPEDTAVYYCAADAYGYKFNSWVQGTQVTVSS | low polyreactivity
8 | QVQLVESGGGLVQAGGSRRIICAASGGTFYYYAMGWYRQAPGKERELVAAITWSGASTRYADSVKGRFTISRDNAKNTVYLQMNSLKPEDTAVYYCAARRVRPLVTYGYWGQGTQLTVSS | high polyreactivity
9 | QVQLVESGGGLVQAGGSRRLICAASGSIFYTNAMGWYRPAPAKERELVARISFSDGTTNYADSVKGRFTISRDNAKNTVYVQMNSLKPEDTAVYYCATDLYGRPVRFDYWGQGTQVTVSS | low polyreactivity
10 | QVQLVESGGGLVQAGGSRRLSCAAAGSTFGVIVMGWYREAPGKEREVVAAITKSGGSTYYADSVKGRFTISRDNAKNTVYLQMNSLKPEDTAVYFCIDAWGREYDYWGQGTQVHVSS | high polyreactivity
11 | QVQLVESGGGLVQAGGSRRLSCAACGFIFEKNAMGWYRQAPGKERELVAAISGGGITNYADSVKGRFTISRDNEKKTVYLHMNSLKPQDTAVYYCAKTRRRLLTRYDYWGQGTQVTVSS | low polyreactivity
12 | QVQLVESGGGLVQAGGSRRLSCAASGRIFLGYTMGWYRQAPGKERELVAAISKSGDSTYYADSVKGRFTISRDNAKNTVYLQMNSLKPEDTAVYYCAAKRYRVGYGYWGQGTQVTVSS | high polyreactivity
13 | QVQLVESGGGLVQAGGSRRLSCAASGRTFWAYAMRCYRQAPGKERELVAAITASGTRTYYADSVKGRFTISRDNAMNTDYLQRNRLKPQDTAGYYCAAERIWWAHAYPTYVANDYWGQGTQGTVSS | high polyreactivity
14 | QVQLVESGGGLVQAGGSRRLSCAASGSIFPQYAMGWYRQAPGKERELVAAITWSGSRTRYADSVKGRFTMSRDTAKNTGYLQMNSLKPEDTAVYDCAARFNGQTYYYWGQGTQVTLSS | high polyreactivity
15 | QVQLVESGGGLVQAGGSRRLSCAASGSIFSQYAMGWYRQAPGKEREFVAAINWSGGRTRYADSVKGRFTISRDNAKNTVYLQMNSLKPEDTAVYYCAKVYSLYSYSGRYDYWGQGTQVTVSS | high polyreactivity
16 | QVQLVESGGGLVQAGGSRRLSCAASGSTFRRYAMGWSRQAPWKERELVAAISGRGGSTSYADSVKGRFTISRDNAKNTVYLQMNSLKPEDTAVYYCNARGYPSRFKYYYWGEGTQVTVSS | high polyreactivity
17 | QVQLVESGGGLVQAGGSRRLSCAASGSTFRYNTMGWYRQAPGKERDLVAAITGGGGSTYYADSVKGRFTISRDNAKNTVYLQMNSLKPEDTAVYYCAKRHWYDCYVSSYTTRYDYWGQGTQVTVSS | low polyreactivity
18 | QVQLVESGGGLVQAGGSRRLSCAASGSTFRYYAMGWYRQAPGKERELVAAISKRGGSTYYADSVKGRFTISRDNAKNTVYLQMNSLKPEDTAVYYCAAYGSVGLEYWGQGTQVTVSS | high polyreactivity
19 | QVQLVESGGGLVQAGGSRRLSCAASGSTFYGYAMGWYRQAPGKEREFVAAITTSGGSTYYADSVKGRFTISRDNAKNTVYLQMNSLKPEDTAVYYCDADAPSWYDRQYDYWGQGTQVTVSS | low polyreactivity
20 | QVQLVESGGGLVQAGGSRRLSCAASGSTFYGYAMGWYRQAPGKERELVAAIRRIGGTTYADSVKGRFTLSRDNAKNTVYLQMNSLKPEDTAVYYCAAYGFSYRYRYYYWGQGTQVTVSS | high polyreactivity
21 | QVQLVESGGGLVQAGGSRRLSCAASGSTFYPYSMGWYRQAPGKESELVAAITWSGGRTYYADSVKGRFTISRDNANNTVYLQMNSLKPEDTAVYYCAADRPDGWVDYWGQGTQVTVSS | low polyreactivity
22 | QVQLVESGGGLVQAGGSRSLSCAASGFTFQGNVMGWYTQAPGKERELVAAISGGGGRTYYADYVKGRFTISRDNAKYTVYLQMNSLIPEDTAVYYCIVRLLGSNRAGVRCDYWGQGTQVTVSS | high polyreactivity

Row | Sequence | polyreactivity (PSR sort gate)
23 | QVQLVESGGGLVQAGGSVRLSCAASGFTFWRYAMGWYRQAPGKEREFVAAITRSGVSTSNADSVKGRFTISRDNAKNTVYLQMNSLKPEDTAVYYCAALFYTSVPYPDYDYWGQGTQVTVSS | high polyreactivity
24 | QVQLVESGGGLVQAGGSVRLSCAASGISFQYNALGWYRQAPGTERELVAGITWSGTSTYFADSVKGRFTISRDNAKNTVYLQLNSMKPEDTAVYYCAAVRGYRGYDYWGQGTQGTVSS | high polyreactivity
25 | QVQLVESGGGLVQAGGSVRLSCAASGRIFGYYAMGWYRQAPGKERELVAAINWNVGSTYYADSVKGRFTISRDNAKNTVYLQMNSLKPEDTAVYYCAAVGRYSRLLGKYDYWGQGTQVTVSS | low polyreactivity
26 | QVQLVESGGGLVQAGGSVRLSCAASGSIFGWYAMGWYRQGPGKEREWVATITDRGGRTYYADSVKGRFTISRDNAKNTVYLQMNSLKPEDTAVYYCAADDCPFEAEYDSWGQGTQVTVSS | low polyreactivity
27 | QVQLVESGGGLVQAGGSVRLSCAASGSTFLHYAMGWYRQPPGKERELVAAITDSGGNTYYADSVKCRFTISRDNAKNTVYLQMNSLKPEDTAVYYCAAEYIFHYYDIFDYWGQGTQVTVSS | high polyreactivity
28 | QVQLVESGGGLVQAGGSVRLSFAASGSSIFGNFMGWYRQAPGKERELVAGITNRGGSTYFADSVKGRFTISRDNAKITVYLQMNSLKPEDTAVYYCAARKNHSGYGRGNYWGQGTQVTVSS | high polyreactivity
29 | QVQLVESGGGLVQAGGTIRLSCAASGIIFRLNPMGWYRQAPGKERELVAAIRRRGGSTYYADSVKGRFTISRDNGKNNVYLQMYSVKPEETEVYHCAKDPHGSDFGYWGQGTHVTVSS | low polyreactivity
30 | QVQLVESGGGLVQAGGTLRFSCAATGSIFDPYARGWYRQAPGKEREFVAAITYTGGDTHYADSVKGRFSISRDKAKNTVYLQLNSLKPEDSAVYYFAAVYYRGIQSYDYWGQGTQVTVSS | low polyreactivity
31 | QVQLVESGGGLVQAGGTLRISCAASGRIFTIYAMGWYRQAPGKERELVATISSNVGSTYYADSVKGRFTISRDNAKNTVYLQMNSLKPEDTAVYYCAATRRAGFTTAKFDYWGQGTQVTVSS | high polyreactivity
32 | QVQLVESGGGLVQAGGTLRISCAASGSIFYLYAMGWYRQAPGKERELVAGIRYRGGSTYYADSVKGRFTISRDNAKNTVYLQMNSLKPEDTAVYYCAAEYGDGRYWSYDYWGQGTQVTVSS | high polyreactivity
33 | QVQLVESGGGLVQAGGTLRLSCAACGRTFPINAMAWYRQAPGKERELVASIRWTDGTTYYADSVKGRFTISRDNAKNTVYLQMNSLKPEDTAVYYCAADAEGSASKYDYWGQGTQVTVSS | low polyreactivity
34 | QVQLVESGGGLVQAGGTLRLSCAASGFTFSSYTVGWYRQAPRKERELVASISSGGSTNYADSVKGRFTISRDNAKNTVYLQMNSLIPEDTAVFYCAAGTPCISFYDVCSGYDYWGQGTQVTVSS | low polyreactivity
35 | QVQLVESGGGLVQAGGTLRLSCAASGLIFFFYAMGWYRQAPGKERELVAAISDDGVSTDYADSVKGRFTISRDNAKNTVYLQMNSLKPEDTAVYYCAAKTERVYPWFSFGYWGQGTQVTVSS | low polyreactivity
36 | QVQLVESGGGLVQAGGTLRLSCAASGLIFGRNAMGWYRQAPGKEREFVATYADSVKGRFTISRYNAKNTVYLQMNSLKPEDTAVYYCATRFVWPSYGYYVQGRFDSWGQGTQVTVSS | low polyreactivity
37 | QVQLVESGGGLVQAGGTLRLSCAASGRIFRENAMGWYRQAPGKERELVAAISSGGSTYYADSVKGRFTISRDNAKNTVYLQMNSLKPEDTAVYYCAADLSWSRVVFGDYDYWGQGTQVTVSS | low polyreactivity
38 | QVQLVESGGGLVQAGGTLRLSCAASGRIFRYNGMGWYRQAPVKERELVAGINWIGGRTYYADSVKGRFTISRDNAKNTVYLQMNSLKPEDTAVYYCAAYWYYIKATTDSDARFDYWGQGTQVTVSS | high polyreactivity
39 | QVQLVESGGGLVQAGGTLRLSCAASGRIFSYNAMGWYRQAPGKERELVAAITWRGGNTYYADSVKGRFTISRDNALNTVYLQMNSLQPEDTAVYYCAAQRGRWAPMYFWGQGTQVTVSS | high polyreactivity
40 | QVQLVESGGGLVQAGGTLRLSCAASGRIFTHNAMGWYRQAPGKERELVAAITSGGRTTYADSVKGRFTISRDNAKNTVYLQMNSLKPEDTAVYYCNADTGLGSLDFDKRDYWGQGTQVNVSS | low polyreactivity
41 | QVQLVESGGGLVQAGGTLRLSCAASGRIFTINAMGWYRQAPGKEREFVAAISGSGGTTYYADSVKGRFTISRDNAMNTVYLQMNSLKPEDTAVYYCAVSQSWYWYYASDYWGQGTQVTVSS | low polyreactivity
42 | QVQLVESGGGLVQAGGTLRLSCAASGRIFVYNAMGWYRQAPGKERELVATITSGGSTYYSDSLKGRFTISRDNAKNTLYFQMNSLKPEDTAVYYCAARRWYVHYFAYGYWGQGTQVTVSS | low polyreactivity
43 | QVQLVESGGGLVQAGGTLRLSCAASGRILYLNAMGWYRQAPGKEREFVAAISKSGGSTYYADSVKGRFTISRDNAMNSVYLQMNSLKPEDTAVYYCATRFRSAEYDYWGQGTQVTVSS | low polyreactivity
